We go through one protein from article PMC5668902.

Substrate in this data set: O=C(O)C(=O)O
The experiment in a line: purified protein. The settings on record: pH 4.2 acetate buffer, 25 °C, free enzyme, not immobilised.

B1: Oxalate decarboxylase (OxDC), wild type, His6-tagged (Bacillus subtilis subsp. subtilis str. 168) (protein)
chain: MKKQNDIPQPIRGDKGATVKIPRNIERDRQNPDMLVPPETDHGTVSNMKFSFSDTHNRLEKGGYAREVTVRELPISENLASVNMRLKPGAIRELHWHKEAEWAYMIYGSARVTIVDEKGRSFIDDVGEGDLWYFPSGLPHSIQALEEGAEFLLVFDDGSFSENSTFQLTDWLAHTPKEVIAANFGVTKEEISNLPGKEKYIFENQLPGSLKDDIVEGPNGEVPYPFTYRLLEQEPIESEGGKVYIADSTNFKVSKTIASALVTVEPGAMRELHWHPNTHEWQYYISGKARMTVFASDGHARTFNYQAGDVGYVPFAMGHYVENIGDEPLVFLEIFKDDHYADVSLNQWLAMLPETFVQAHLDLGKDFTDVLSKEKHPVVKKKCSK
Turning to B1, the Michaelis-Menten constant (Km) is 12 ± 3 mM, the kcat came to 158 ± 13 s⁻¹ and the kcat/Km worked out at 13000 ± 3000 M⁻¹ s⁻¹.

By Km is commonly meant the substrate concentration at which the rate is half of its maximum. For orientation: kcat means the maximal rate divided by the concentration of active sites. One may read the kcat/Km as the turnover number divided by the Michaelis constant.
